Results on three molecules are retold here after paper PMC8041770.

Test [1] has as its target yeast-displayed human LIF (hLIF, Ser23 to Phe203) (human) (UniProt P15018). Description: flow cytometry on cells; LIF displayed on yeast (EBY100), soluble Fc fusion titrated in PBS with 1 mg/ml BSA, Fc detected with fluorescent secondary antibody; apparent Kd by non-linear regression. A general note: In flow cytometry, cells or beads pass a laser one at a time.
Test [2] concerns the target yeast surface-displayed human LIF (Ser23 to Phe203) (human) (UniProt P15018). Description: flow cytometry on cells; hLIF displayed on yeast, soluble Fc fusion titrated in PBS with 1 mg/ml BSA; bound Fc detected by fluorescent anti-Fc antibody; apparent Kd by non-linear regression.
The target in test [3] is recombinant human LIF, histidine-tagged (hLIF-His) (human) (UniProt P15018).
Test [4] shares this target. Description: Kinetic Exclusion Assay (KinExA); both partners soluble; hLIF-His constant (100 pM for eLIFR-Fc, 250 pM for hLIFR-Fc), LIFR-Fc serially diluted, 18 h, BPBS with 0.02% sodium azide; free LIF-His captured on LIFR-Fc-coated PMMA beads; apparent Kd, n-curve analysis.

B1: C-terminal eLIFR-Fc fusion containing a (Glycine)4Serine linker (Fc fusion)
chain: GGGGSDLKCVTNNLQVWNCSWKAPSGTGRGTDYEVCIENRSRSCYQLEKTSIKIPALSHGDYEITINSLHDFGSSTSKFTLNEQNVSLIPDTPEILNLSADFSTSTLYLKWNDRGSVFPHRSNVIWEIKVLRKESMELVKLVTHNTTLNGKDTLHHWSWASDMPLECAIHFVEIRCYIDNLHFSGLEEWSDWSPVKNISWIPDSQTKVFPQDKVVPVGSDITFCCVSQEKVLSALIGRTNCPLIHLDGENVAIKVRNVSASASSGTNVVFITEDDIFGTVIFAGYPPDTPQQLNCETHDLKEIICSWNPGRVTALVGPRATSYTLVESFSGKYVRLKRAEAPTNESYQLLFQMLPNQEIYNFTLNAHNPLGRSQSTILVNITEKVYPHTPTSFKVKDINSTAVKLSWHLPGNFAKINFLCEIEIKKSNSVQEQRNVTIKGVENSSYLVALDKLNPYTLYTFRIRCSTETFWKWSKWSNKKQHLTTEAS
Regarding B1, the Kd in test [1] was determined as 0.02 nM.

B2: full-length eLIFR-Fc (Fc fusion)
chain: QKKGAPHDLKCVTNNLQVWNCSWKAPSGTGRGTDYEVCIENRSRSCYQLEKTSIKIPALSHGDYEITINSLHDFGSSTSKFTLNEQNVSLIPDTPEILNLSADFSTSTLYLKWNDRGSVFPHRSNVIWEIKVLRKESMELVKLVTHNTTLNGKDTLHHWSWASDMPLECAIHFVEIRCYIDNLHFSGLEEWSDWSPVKNISWIPDSQTKVFPQDKVVPVGSDITFCCVSQEKVLSALIGRTNCPLIHLDGENVAIKVRNVSASASSGTNVVFITEDDIFGTVIFAGYPPDTPQQLNCETHDLKEIICSWNPGRVTALVGPRATSYTLVESFSGKYVRLKRAEAPTNESYQLLFQMLPNQEIYNFTLNAHNPLGRSQSTILVNITEKVYPHTPTSFKVKDINSTAVKLSWHLPGNFAKINFLCEIEIKKSNSVQEQRNVTIKGVENSSYLVALDKLNPYTLYTFRIRCSTETFWKWSKWSNKKQHLTTEASPSKGPDTWREWSSDGKNLIIYWKPLPINEANGKILSYNVSCSSDEETQSLSEIPDPQHKAEIRLDKNDYIISVVAKNSVGSSPPSKIASMEIPNDDLKIEQVVGMGKGILLTWHYDPNMTCDYVIKWCNSSRSEPCLMDWRKVPSNSTETVIESDEFRPGIRYNFFLYGCRNQGYQLLRSMIGYIEELAPIVAPNFTVEDTSADSILVKWEDIPVEELRGFLRGYLFYFGKGERDTSKMRVLESGRSDIKVKNITDISQKTLRIADLQGKTSYHLVLRAYTDGGVGPEKSMYVVTKENSVGLIIAILIPVAVAVIVGVVTSILCYRKREWIKETFYPDIPNPE
On to B2, for which, in test [2], the Kd turned out to be 0.35 nM.

B3: hLIFR-Fc (wild-type human LIFR CBM I–Ig-like–CBM II fused to hIgG1 Fc) (Fc fusion)
chain: QKKGAPHDLKCVTNNLQVWNCSWKAPSGTGRGTDYEVCIENRSRSCYQLEKTSIKIPALSHGDYEITINSLHDFGSSTSKFTLNEQNVSLIPDTPEILNLSADFSTSTLYLKWNDRGSVFPHRSNVIWEIKVLRKESMELVKLVTHNTTLNGKDTLHHWSWASDMPLECAIHFVEIRCYIDNLHFSGLEEWSDWSPVKNISWIPDSQTKVFPQDKVILVGSDITFCCVSQEKVLSALIGHTNCPLIHLDGENVAIKIRNISVSASSGTNVVFTTEDNIFGTVIFAGYPPDTPQQLNCETHDLKEIICSWNPGRVTALVGPRATSYTLVESFSGKYVRLKRAEAPTNESYQLLFQMLPNQEIYNFTLNAHNPLGRSQSTILVNITEKVYPHTPTSFKVKDINSTAVKLSWHLPGNFAKINFLCEIEIKKSNSVQEQRNVTIKGVENSSYLVALDKLNPYTLYTFRIRCSTETFWKWSKWSNKKQHLTTEAS
B3: in test [3], the IC50 of inhibition of LIF (20 pM) signalling through LIFR/gp130 in HeLa STAT3 luciferase reporter cells is 1.8 nM. Also, the Kd in test [4] is 1.1 nM.
